B1: human RAD51 (Gal4 two-hybrid fusion) (natural protein)
chain: MAMQMQLEANADTSVEEESFGPQPISRLEQCGINANDVKKLEEAGFHTVEAVAYAPKKELINIKGISEAKADKILAEAAKLVPMGFTTATEFHQRRSEIIQITTGSKELDKLLQGGIETGSITEMFGEFRTGKTQICHTLAVTCQLPIDRGGGEGKAMYIDTEGTFRPERLLAVAERYGLSGSDVLDNVAYARAFNTDHQTQLLYQASAMMVESRYALLIVDSATALYRTDYSGRGELSARQMHLARFLRMLLRLADEFGVAVVITNQVVAQVDGAAMFAADPKKPIGGNIIAHASTTRLYLRKGRGETRICKIYDSPCLPEAEAMFAINADGVGDAKD
B2: human RAD51AP1 (Gal4 two-hybrid fusion, all of RAD51AP1) (natural protein)
chain: MVRPVRHKKPVNYSQFDHSDSDDDFVSATVPLNKKSRTAPKELKQDKPKPNLNNLRKEEIPVQEKTPKKRMALDDKLYQRDLEVALALSVKELPTVTTNVQNSQDKSIEKHGSSKIETMNKSPHISNCSVASDYLDLDKITVEDDVGGVQGKRKAASKAAAQQRKILLEGSDGDSANDTEPDFAPGEDSEDDSDFCESEDNDEDFSMRKSKVKEIKKKEVKVKSPVEKKEKKSKSKCNALVTSVDSAPAAVKSESQSLPKKVSLSSDTTRKPLEIRSPSAESKKPKWVPPAASGGSRSSSSPLVVVSVKSPNQSLRLGLSRLARVKPLHPNATST
B3: RAD51AP1-C89 (C-terminal 89 amino acids of human RAD51AP1) (domain or fragment)
chain: APAAVKSESQSLPKKVSLSSDTTRKPLEIRSPSAESKKPKWVPPAASGGSRSSSSPLVVVSVKSPNQSLRLGLSRLARVKPLHPNATST

Common to all, as to test: two-hybrid
In assay [1] the target is human RAD51 (Gal4 two-hybrid fusion) (human) (UniProt Q06609).
Assay [2] concerns the target Saccharomyces cerevisiae RAD51 (Gal4 two-hybrid fusion) (Saccharomyces cerevisiae) (UniProt P25454).
For assay [3], the target named is human DMC1 (Gal4 two-hybrid fusion) (human) (UniProt Q14565).
Assay [4] deals with human RAD51AP1 (Gal4 two-hybrid fusion, all of RAD51AP1) (human) (UniProt Q96B01).
Assay [5] concerns the target Two larger fragments, each containing RAD54 79-118.
For assay [6], the target named is RAD51AP2-C92 (last 92 amino acids of human RAD51AP2) (human) (UniProt Q09MP3).
Assay [7] has as its target RAD51AP2-C33 (C-terminal 33 amino acids of human RAD51AP2) (human) (UniProt Q09MP3).
Assay [8] has as its target B2.
Assay [9] addresses B3.
For assay [10], the target named is T1, RAD51AP1-C25 (C-terminal 25 residues of human RAD51AP1) (human, UniProt Q96B01-2 311-335).
T1 chain: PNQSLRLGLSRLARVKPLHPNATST

Assay [11] concerns the target B1.

Sequence of human DMC1 (Gal4 two-hybrid fusion) (human) (Q14565 whole entry, the tested form may be a part): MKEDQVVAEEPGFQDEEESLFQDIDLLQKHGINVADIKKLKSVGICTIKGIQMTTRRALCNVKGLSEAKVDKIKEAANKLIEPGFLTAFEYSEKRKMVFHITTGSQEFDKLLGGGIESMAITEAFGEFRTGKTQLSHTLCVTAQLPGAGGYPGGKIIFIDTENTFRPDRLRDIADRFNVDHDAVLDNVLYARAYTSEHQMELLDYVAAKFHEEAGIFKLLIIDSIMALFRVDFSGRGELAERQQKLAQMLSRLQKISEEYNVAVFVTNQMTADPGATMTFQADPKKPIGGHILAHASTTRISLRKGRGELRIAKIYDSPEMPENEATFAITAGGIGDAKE
Sequence of RAD51AP2-C92 (last 92 amino acids of human RAD51AP2) (human) (Q09MP3 1068-1159): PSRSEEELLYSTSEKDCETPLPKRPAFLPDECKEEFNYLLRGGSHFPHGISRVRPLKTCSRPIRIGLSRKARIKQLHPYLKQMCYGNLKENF
Sequence of Saccharomyces cerevisiae RAD51 (Gal4 two-hybrid fusion) (Saccharomyces cerevisiae) (P25454 whole entry, the tested form may be a part): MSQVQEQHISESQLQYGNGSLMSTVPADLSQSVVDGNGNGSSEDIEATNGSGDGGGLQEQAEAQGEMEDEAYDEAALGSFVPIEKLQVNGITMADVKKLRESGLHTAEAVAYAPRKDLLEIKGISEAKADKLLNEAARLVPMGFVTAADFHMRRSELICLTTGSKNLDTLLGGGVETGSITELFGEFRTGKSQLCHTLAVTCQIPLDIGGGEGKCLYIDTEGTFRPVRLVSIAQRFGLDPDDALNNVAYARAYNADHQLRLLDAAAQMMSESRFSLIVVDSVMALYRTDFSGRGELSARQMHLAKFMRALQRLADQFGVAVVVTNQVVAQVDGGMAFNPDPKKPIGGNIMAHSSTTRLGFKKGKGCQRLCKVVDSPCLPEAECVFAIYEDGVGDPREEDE
Sequence of RAD51AP2-C33 (C-terminal 33 amino acids of human RAD51AP2) (human) (Q09MP3 whole entry): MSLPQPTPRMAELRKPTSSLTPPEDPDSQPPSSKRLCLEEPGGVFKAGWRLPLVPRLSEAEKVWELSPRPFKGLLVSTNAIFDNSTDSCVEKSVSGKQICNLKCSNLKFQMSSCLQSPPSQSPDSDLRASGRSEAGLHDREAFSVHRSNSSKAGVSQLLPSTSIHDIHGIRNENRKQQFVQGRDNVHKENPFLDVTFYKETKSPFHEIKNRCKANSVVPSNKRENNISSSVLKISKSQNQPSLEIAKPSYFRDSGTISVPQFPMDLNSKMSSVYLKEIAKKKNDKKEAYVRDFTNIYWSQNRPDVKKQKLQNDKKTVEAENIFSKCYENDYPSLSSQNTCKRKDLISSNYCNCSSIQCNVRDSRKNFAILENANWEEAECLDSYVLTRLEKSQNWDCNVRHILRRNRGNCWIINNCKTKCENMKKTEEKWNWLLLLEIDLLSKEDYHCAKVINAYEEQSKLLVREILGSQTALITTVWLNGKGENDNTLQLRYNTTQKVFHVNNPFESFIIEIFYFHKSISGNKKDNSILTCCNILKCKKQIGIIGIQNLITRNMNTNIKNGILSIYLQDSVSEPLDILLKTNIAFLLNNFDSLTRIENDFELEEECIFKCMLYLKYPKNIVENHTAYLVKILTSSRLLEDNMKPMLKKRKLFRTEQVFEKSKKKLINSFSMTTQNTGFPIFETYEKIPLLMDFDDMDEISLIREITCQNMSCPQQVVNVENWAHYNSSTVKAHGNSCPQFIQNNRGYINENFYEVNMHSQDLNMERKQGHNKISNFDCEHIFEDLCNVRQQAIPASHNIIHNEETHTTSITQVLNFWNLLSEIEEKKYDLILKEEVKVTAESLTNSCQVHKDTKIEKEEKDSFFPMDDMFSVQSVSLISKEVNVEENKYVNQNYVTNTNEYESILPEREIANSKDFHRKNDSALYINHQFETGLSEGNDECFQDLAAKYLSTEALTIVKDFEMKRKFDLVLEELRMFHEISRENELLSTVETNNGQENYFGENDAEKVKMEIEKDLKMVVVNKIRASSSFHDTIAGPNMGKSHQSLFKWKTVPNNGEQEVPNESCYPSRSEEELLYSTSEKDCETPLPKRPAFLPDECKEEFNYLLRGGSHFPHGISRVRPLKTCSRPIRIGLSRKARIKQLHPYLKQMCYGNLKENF

In turn, “RAD51AP2-C92 (last 92 amino acids of human RAD51AP2) (from UniProt Q09MP3 1068-1159) (domain or fragment)” had a units of β-galactosidase (units of β-galactosidase) in [1] of 143.
As to “RAD51AP2-C321 (C-terminal 321 amino acids of human RAD51AP2) (from UniProt Q09MP3 839-1159) (domain or fragment)”, the units of β-galactosidase (units of β-galactosidase) is < 0.3 in assay [2], 301 in [1], < 0.3 in assay [3] and < 0.3 in assay [4].
For the molecule “human RAD51 (Gal4 two-hybrid fusion) (from UniProt Q06609 1-339) (natural protein)”, the percent of the interaction of RAD54-N142 with RAD51 in [5] is > 70%. Besides, the units of β-galactosidase (units of β-galactosidase) in assay [6] turned out to be 521; in assay [7], 395.
As to B1, the “units of β-galactosidase” value in assay [8] was 590 units of β-galactosidase; in assay [9], 420 units of β-galactosidase; in assay [10] it was 473 units of β-galactosidase.
With B2, the “units of β-galactosidase” value in assay [11] was 111 units of β-galactosidase.
Take B3: in [11], the “units of β-galactosidase” value is 24.6 units of β-galactosidase.

For the origin of these results see paper PMC1636435 (Nucleic Acids Research, 2006).
